From patent US20090061444A1 (WISCONSIN ALUMNI RESEARCH FOUNDATION, published 2009) come the findings set out here.

This data set deals with the molecule itself. As to the kind of experiment: size exclusion chromatography (Superose 6), non-denaturing; self-association. Here is the method:
Size Exclusion Chromatography. Size exclusion chromatography (SEC) was performed by FPLC using a 24 ml Superose 6 (S6) column (GE Healthcare, Pittsburgh, Pa.). The chromoproteins (100 μl of a 5 mg/ml sample) were first purified through the phenyl HP step, dissolved in 30 mM Tris-HCl (pH 8.0) and 200 mM NaCl, and either loaded onto the column as Pr or immediately following saturating irradiation of the sample with red light (630 nm). Absorption spectra were recorded before and after SEC to verify that the chromoproteins remained enriched in the desired states (Pr or Pfr).
SEC has shown that most, if not all, Phys are dimeric with their binding interface(s) involving one or more regions, including the GAF domain in DrBphP, the PAS-GAF-PHY domain in Syn-Cph1, and the C-terminal HK and HK-related regions in microbial and higher plants Phys. […] Whereas the GAF domain alone as Pr behaved as a monomer of 22 kDa, consistent with its calculated molecular mass of 23.3 kDa, the GAF-PHY fragment behaved as a dimer species at 105-kDa, nearly twice the size of its calculated mass of 48.4 kDa (FIG. 23). […] The predicted molecular masses of monomeric SyB-Cph1 (GAF) and SyB-Cph1 (GAF-PHY) polypeptides are 23.3 kDa and 48.4 kDa, respectively, while the apparent molecular masses measured by SEC are 22 and 106 kDa, respectively.

B1: SyB-Cph1 (GAF) chromoprotein assembled with PCB (other)
chain: MDTETWAAAARPSRDALINRITHQIRQSLELDQILRATVEEVRAFLGTDRVKVYRFDPEGHGTVVAEARGGERLPSLLGLTFPAGDIPEEARRLFRLAQVRVIVDVEAQSRSISQPESWGLSARVPLGEPLQRPVDPCHVHYLKSMGVASSLVVPLMHHQELWGLLVSHHAEPRPYSQEELQVVQLLADQVSIAIAQAELHHHHHH
modifications: phycocyanobilin (PCB) covalently bound at Cys-138
notes: It ran as a monomer on SEC, both as Pr and after saturating red light; also called CYB GAF; BG
As to B1, the binding result is “no binding (tested: 100 µl of a 5 mg/ml sample loaded)”.
